According to article PMC3479137:

How the values were obtained:
[1] = biological target: fHbp subfamily A (Neisseria meningitidis) (UniProt Q9JXV4); conditions: cited from earlier work
[2] = biological target: fHbp subfamily B (Neisseria meningitidis) (UniProt Q9JXV4); conditions: cited from earlier work
[3] = biological target: fHbp_10 (1.P10) with D184 replaced by K184 (Neisseria meningitidis); test: SPR; ProteOn XPR36 (BioRad); fHbp immobilized on a ProteOn GLM sensor chip; increasing concentrations of fH67 injected at 40 µl/min, dissociation 300 seconds; KD calculated with ProteOn manager software; average KD
[4] = biological target: fHbp_10 (1.P10), factor H binding protein with aspartic acid at position 184 (Neisseria meningitidis) (UniProt E6MV22); test: as above
Chain of fHbp_10 (1.P10), factor H binding protein with aspartic acid at position 184 (Neisseria meningitidis) (E6MV22 20-274): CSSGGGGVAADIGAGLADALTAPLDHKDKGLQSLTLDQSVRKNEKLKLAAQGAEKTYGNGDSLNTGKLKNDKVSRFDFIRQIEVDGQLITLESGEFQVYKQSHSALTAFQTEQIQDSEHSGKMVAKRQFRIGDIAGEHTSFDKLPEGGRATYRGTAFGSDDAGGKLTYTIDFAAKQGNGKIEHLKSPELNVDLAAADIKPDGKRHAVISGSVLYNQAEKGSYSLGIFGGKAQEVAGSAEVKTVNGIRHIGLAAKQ

Chain of factor H (P08603 19-1231): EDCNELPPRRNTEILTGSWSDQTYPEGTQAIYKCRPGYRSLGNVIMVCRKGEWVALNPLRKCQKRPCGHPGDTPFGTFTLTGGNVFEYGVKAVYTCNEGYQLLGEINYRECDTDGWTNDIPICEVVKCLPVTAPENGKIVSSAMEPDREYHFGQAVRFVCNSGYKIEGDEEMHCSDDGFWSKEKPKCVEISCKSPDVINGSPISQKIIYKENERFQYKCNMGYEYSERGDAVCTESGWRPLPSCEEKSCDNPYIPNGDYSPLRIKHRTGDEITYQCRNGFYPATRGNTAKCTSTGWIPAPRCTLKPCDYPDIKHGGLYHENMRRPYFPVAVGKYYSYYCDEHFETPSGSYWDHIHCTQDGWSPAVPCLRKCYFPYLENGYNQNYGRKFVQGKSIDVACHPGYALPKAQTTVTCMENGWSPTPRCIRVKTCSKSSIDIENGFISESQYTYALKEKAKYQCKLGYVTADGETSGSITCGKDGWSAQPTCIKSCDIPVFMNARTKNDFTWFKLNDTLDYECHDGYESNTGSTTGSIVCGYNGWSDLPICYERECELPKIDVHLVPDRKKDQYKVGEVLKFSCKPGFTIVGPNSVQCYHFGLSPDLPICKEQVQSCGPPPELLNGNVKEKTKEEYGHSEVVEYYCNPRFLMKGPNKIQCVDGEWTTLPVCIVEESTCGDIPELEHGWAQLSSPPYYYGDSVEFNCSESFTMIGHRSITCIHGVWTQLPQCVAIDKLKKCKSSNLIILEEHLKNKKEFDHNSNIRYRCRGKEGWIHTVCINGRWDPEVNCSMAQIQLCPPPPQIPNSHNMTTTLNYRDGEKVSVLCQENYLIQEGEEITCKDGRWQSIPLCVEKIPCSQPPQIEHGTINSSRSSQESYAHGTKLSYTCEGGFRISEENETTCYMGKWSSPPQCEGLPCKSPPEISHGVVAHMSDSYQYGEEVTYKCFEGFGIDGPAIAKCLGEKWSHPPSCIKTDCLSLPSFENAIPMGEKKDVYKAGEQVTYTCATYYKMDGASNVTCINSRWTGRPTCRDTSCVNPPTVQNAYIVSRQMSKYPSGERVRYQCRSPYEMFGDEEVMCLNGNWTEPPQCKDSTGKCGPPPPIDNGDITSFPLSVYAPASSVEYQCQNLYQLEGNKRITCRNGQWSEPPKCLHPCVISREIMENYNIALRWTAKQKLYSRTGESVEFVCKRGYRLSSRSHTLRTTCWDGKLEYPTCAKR
Chain of fHbp subfamily B (Neisseria meningitidis) (Q9JXV4 20-274): as the sequence (E6MV22 20-274) above
Chain of fHbp subfamily A (Neisseria meningitidis) (Q9JXV4 20-274): as the sequence (E6MV22 20-274) above

| Substance | Kd [1] [nM] | Kd [2] [nM] | Kd [3] [nM] | Kd [4] [nM] |
| --- | --- | --- | --- | --- |
| factor H (from UniProt P08603) | 29 | 153 |  |  |
| recombinant purified human fH (SCR67) (from UniProt P08603 19-1231) (domain or fragment) |  |  | 26 | 17.4 |
